# Measurements published in patent US10513713B2, “Modified host cells having tolerance to α-olefins” (priority 2014, dated 2019).
# B1: AcrA and AcrB: plasmid-borne wild type acrA and acrB in an operon under an arabinose inducible promoter (pABc) (protein, UniProt P0AE06 25-397; P31224 1-1049, looked up)
# Multidrug efflux pump subunit … 1: CDDKQAQQGGQQMPAVGVVTVKTEPLQITTELPGRTSAYRIAEVRPQVSGIILKRNFKEGSDIEAGVSLYQIDPATYQATYDSAKGDLAKAQAAANIAQLTVNRYQKLLGTQYISKQEYDQALADAQQANAAVTAAKAAVETARINLAYTKVTSPISGRIGKSNVTEGALVQNGQATALATVQQLDPIYVDVTQSSNDFLRLKQELANGTLKQENGKAKVSLITSDGIKFPQDGTLEFSDVTVDQTTGSITLRAIFPNPDHTLLPGMFVRARLEEGLNPNAILVPQQGVTRTPRGDATVLVVGADDKVETRPIVASQAIGDKWLVTEGLKAGDRVVISGLQKVRPGVQVKAQEVTADNNQQAASGAQPEQSKS
# Multidrug efflux pump subunit … 2: MPNFFIDRPIFAWVIAIIIMLAGGLAILKLPVAQYPTIAPPAVTISASYPGADAKTVQDTVTQVIEQNMNGIDNLMYMSSNSDSTGTVQITLTFESGTDADIAQVQVQNKLQLAMPLLPQEVQQQGVSVEKSSSSFLMVVGVINTDGTMTQEDISDYVAANMKDAISRTSGVGDVQLFGSQYAMRIWMNPNELNKFQLTPVDVITAIKAQNAQVAAGQLGGTPPVKGQQLNASIIAQTRLTSTEEFGKILLKVNQDGSRVLLRDVAKIELGGENYDIIAEFNGQPASGLGIKLATGANALDTAAAIRAELAKMEPFFPSGLKIVYPYDTTPFVKISIHEVVKTLVEAIILVFLVMYLFLQNFRATLIPTIAVPVVLLGTFAVLAAFGFSINTLTMFGMVLAIGLLVDDAIVVVENVERVMAEEGLPPKEATRKSMGQIQGALVGIAMVLSAVFVPMAFFGGSTGAIYRQFSITIVSAMALSVLVALILTPALCATMLKPIAKGDHGEGKKGFFGWFNRMFEKSTHHYTDSVGGILRSTGRYLVLYLIIVVGMAYLFVRLPSSFLPDEDQGVFMTMVQLPAGATQERTQKVLNEVTHYYLTKEKNNVESVFAVNGFGFAGRGQNTGIAFVSLKDWADRPGEENKVEAITMRATRAFSQIKDAMVFAFNLPAIVELGTATGFDFELIDQAGLGHEKLTQARNQLLAEAAKHPDMLTSVRPNGLEDTPQFKIDIDQEKAQALGVSINDINTTLGAAWGGSYVNDFIDRGRVKKVYVMSEAKYRMLPDDIGDWYVRAADGQMVPFSAFSSSRWEYGSPRLERYNGLPSMEILGQAAPGKSTGEAMELMEQLASKLPTGVGYDWTGMSYQERLSGNQAPSLYAISLIVVFLCLAALYESWSIPFSVMLVVPLGVIGALLAATFRGLTNDVYFQVGLLTTIGLSAKNAILIVEFAKDLMDKEGKGLIEATLDAVRMRLRPILMTSLAFILGVMPLVISTGAGSGAQNAVGTGVMGGMVTATVLAIFFVPVFFVVVRRRFSRKNEDIEHSHTVDHH
# B2: Q584R: E. coli AcrB (SEQ ID NO:1) variant with amino acid mutation Q584R (protein)
# chain: MPNFFIDRPIFAWVIAIIIMLAGGLAILKLPVAQYPTIAPPAVTISASYPGADAKTVQDTVTQVIEQNMNGIDNLMYMSSNSDSTGTVQITLTFESGTDADIAQVQVQNKLQLAMPLLPQEVQQQGVSVEKSSSSFLMVVGVINTDGTMTQEDISDYVAANMKDAISRTSGVGDVQLFGSQYAMRIWMNPNELNKFQLTPVDVITAIKAQNAQVAAGQLGGTPPVKGQQLNASIIAQTRLTSTEEFGKILLKVNQDGSRVLLRDVAKIELGGENYDIIAEFNGQPASGLGIKLATGANALDTAAAIRAELAKMEPFFPSGLKIVYPYDTTPFVKISIHEVVKTLVEAIILVFLVMYLFLQNFRATLIPTIAVPVVLLGTFAVLAAFGFSINTLTMFGMVLAIGLLVDDAIVVVENVERVMAEEGLPPKEATRKSMGQIQGALVGIAMVLSAVFVPMAFFGGSTGAIYRQFSITIVSAMALSVLVALILTPALCATMLKPIAKGDHGEGKKGFFGWFNRMFEKSTHHYTDSVGGILRSTGRYLVLYLIIVVGMAYLFVRLPSSFLPDEDQGVFMTMVQLPAGATRERTQKVLNEVTHYYLTKEKNNVESVFAVNGFGFAGRGQNTGIAFVSLKDWADRPGEENKVEAITMRATRAFSQIKDAMVFAFNLPAIVELGTATGFDFELIDQAGLGHEKLTQARNQLLAEAAKHPDMLTSVRPNGLEDTPQFKIDIDQEKAQALGVSINDINTTLGAAWGGSYVNDFIDRGRVKKVYVMSEAKYRMLPDDIGDWYVRAADGQMVPFSAFSSSRWEYGSPRLERYNGLPSMEILGQAAPGKSTGEAMELMEQLASKLPTGVGYDWTGMSYQERLSGNQAPSLYAISLIVVFLCLAALYESWSIPFSVMLVVPLGVIGALLAATFRGLTNDVYFQVGLLTTIGLSAKNAILIVEFAKDLMDKEGKGLIEATLDAVRMRLRPILMTSLAFILGVMPLVISTGAGSGAQNAVGTGVMGGMVTATVLAIFFVPVFFVVVRRRFSRKNEDIEHSHTVDHH
# modifications: E. coli
# Key:
# Format in all cases: cell-based
# E. coli K12 [1] = experiment: microbe, parasite or virus in culture; conditions: Escherichia coli, K12, 2 h, read-out: toxic dose (concentration of compound that decreased growth by half)
# Procedure: A: The olefin compounds were added to different concentrations as indicated to an E. coli K12 culture at an OD600=0.2. OD was monitored after 2 hour at 37° C. The bars represent standard deviation between duplicates B: A survival test in presence of 1-octene was performed. Six different dilutions of a culture (10 cells to 10^7 cells, left to right) of E. coli K12 were spotted in triplicate on an agar plate. […] Plates were incubated at room temperature for 2 days and then opened to allow evaporation of the olefin.
# In this example, toxicity of olefin compounds was evaluated. A toxic dose was defined as the concentration of compound that decreased growth by half.
# E. coli K12 [2] = experiment: Survival test on agar plate with 1-octene overlay; conditions: 2 days at room temperature, FIG. 1B
# Procedure: FIG. 1. Impact of styrene, 1-hexene and 1-octene on cell growth. A: The olefin compounds were added to different concentrations as indicated to an E. coli K12 culture at an OD600=0.2. OD was monitored after 2 hour at 37° C. The bars represent standard deviation between duplicates B: A survival test in presence of 1-octene was performed. Six different dilutions of a culture (10 cells to 10^7 cells, left to right) of E. coli K12 were spotted in triplicate on an agar plate. An overlay of 1-octene was added over the cells (controls had no overlay). Plates were incubated at room temperature for 2 days and then opened to allow evaporation of the olefin.
# For agar plate based assays, cells were first streaked overnight and few colonies were used to inoculate a preculture of 6 mL of LB-Cm with glucose (2 g/L) and arabinose (5 mM). At OD60=1 at 37° C., the cultures were used to prepare a dilution series. Dilution 0 (D0) corresponds to the OD600, =1, and contains ˜10^9 cells/mL. Dilution 1 (D1) is a 10-fold dilution of D0, dilution 2 (D2) a 10-fold dilution of D1 up to dilution 5 (D5), which contains ˜10^4 cells/mL. 10 μL of each dilution was spotted in triplicate on LB-agar plates (single well plates, Thermo Scientific, Waltham, Mass.) containing 30 mL of LB-agar, Cm (30 mg/L), glucose (2 g/L) and arabinose (5 mM). […]
# E. coli K12 ΔacrAB [3] = experiment: Survival assay on agar plate in olefin saturated atmosphere, strains producing AcrAB or AcrB variants
# Procedure: (§1) FIG. 2: impact of AcrAB production on growth, in presence of styrene 1-hexene, 1-octene and 1-nonene on cell growth. A: Different concentrations of styrene were added to an OD600=0.2 culture of E. coli K12 ΔacrAB containing the pABc (white) or the control plasmid p0c (black). OD density was monitored after 2 hours of growth at 37° C. The bars represent standard deviation between duplicates. B: A survival test in presence of 1-hexene, 1-octene, or 1-nonene saturated atmosphere was performed. Six different dilutions of cultures (10 cells to 10^7 cells, left to right on the figure) were spotted in triplicate on an agar plates. Plates were then exposed to the aforementioned chemicals.
# FIG. 4: Impact of beneficial mutations on AcrB on tolerance to 1-hexene, A: Survival test of E. coli strain producing either the AcrB wild type or variants in a 1-hexene saturated atmosphere was performed. Two dilutions of cultures (Dilution 1: 10^5 cells and Dilution 2: 10^4 cells) were spotted in triplicate on an agar plate. B: Localization of the 6 beneficial mutations represented on the structure of a single monomer of AcrB or C: on the structure of the AcrB trimer.
# FIG. 6: Impact of beneficial mutations on AcrB on tolerance to 1-hexene. A: Survival test of E. coli strain producing either the AcrB Wild type or variants with 1, 2 or several beneficial mutations, in an 1-hexene saturated atmosphere was performed. Two dilutions of cultures (Dilution 2: 10^4 cells and Dilution 3: 10^3 cells) were spotted in triplicate on an agar plate. B: Soluble fraction of total proteins from a culture of strains producing either the wild type, either the variant F617L, either the variant 6 (A279T, Q584R, F617L) were analyzed by western blot using anti-His antibody.
# For agar plate based assays, cells were first streaked overnight and few colonies were used to inoculate a preculture of 6 mL of LB-Cm with glucose (2 g/L) and arabinose (5 mM). At OD60=1 at 37° C., the cultures were used to prepare a dilution series. Dilution 0 (D0) corresponds to the OD600, =1, and contains ˜10^9 cells/mL. Dilution 1 (D1) is a 10-fold dilution of D0, dilution 2 (D2) a 10-fold dilution of D1 up to dilution 5 (D5), which contains ˜10^4 cells/mL. 10 μL of each dilution was spotted in triplicate on LB-agar plates (single well plates, Thermo Scientific, Waltham, Mass.) containing 30 mL of LB-agar, Cm (30 mg/L), glucose (2 g/L) and arabinose (5 mM). Small containers (microfuge tube lids) were placed on the open lid of the agar plate and filled with 400 to 600 μL of 1-hexene or 1-octene or with 75 μL of 1-nonene. The agar plates were then inverted over the lid, cells facing the olefin compound, sealed with parafilm, placed in the plastic bag (the original packaging for the petri dishes) and incubated for 2 days at room temperature. For 1-octene, a second condition, via overlaying 2 mL of compound on the top of the agar submerging the cells, was used. TolC overexpression impact was examined using the same method, but in this case, the LB media and the LB-agar were also supplemented with ampicillin (100 mg/L) and IPTG (100 μM). […]
# E. coli K12 ΔacrAB [4] = experiment: Growth in liquid culture with 1-hexene, styrene or bile salts, strains producing AcrAB or AcrB variants
# Procedure: as §1
# FIG. 5: Impact of beneficial AcrB mutations on growth, in presence of 1-hexene and styrene. Different concentrations of 1-hexene (A), styrene (B), or bile salts (C) were added to an OD600=0.2 culture of E. Coli K12 ΔacrAB containing either the AcrB wild type (pABc) or the AcrB variants. OD densities were monitored after 2 hours of culture at 37° C. The bars represent standard deviation between duplicates.
# Cells were first inoculated in 6 mL LB-Cm with glucose (2 g/L) and arabinose (5 mM). […] After 2 hours at 37° C., OD600 was measured. […]
# E. coli K12 wild type = experiment: Survival test in 1-hexene saturated atmosphere on over-production of AcrA, AcrB and TolC; conditions: FIG. 3
# Procedure: Six different dilutions of cultures (10 cells to 10^7 cells, left to right on the picture) were spotted in triplicate on an agar plate.
# For agar plate based assays, cells were first streaked overnight and few colonies were used to inoculate a preculture of 6 mL of LB-Cm with glucose (2 g/L) and arabinose (5 mM). At OD60=1 at 37° C., the cultures were used to prepare a dilution series. Dilution 0 (D0) corresponds to the OD600, =1, and contains ˜10^9 cells/mL. Dilution 1 (D1) is a 10-fold dilution of D0, dilution 2 (D2) a 10-fold dilution of D1 up to dilution 5 (D5), which contains ˜10^4 cells/mL. 10 μL of each dilution was spotted in triplicate on LB-agar plates (single well plates, Thermo Scientific, Waltham, Mass.) containing 30 mL of LB-agar, Cm (30 mg/L), glucose (2 g/L) and arabinose (5 mM). […] The agar plates were then inverted over the lid, cells facing the olefin compound, sealed with parafilm, placed in the plastic bag (the original packaging for the petri dishes) and incubated for 2 days at room temperature. For 1-octene, a second condition, via overlaying 2 mL of compound on the top of the agar submerging the cells, was used. TolC overexpression impact was examined using the same method, but in this case, the LB media and the LB-agar were also supplemented with ampicillin (100 mg/L) and IPTG (100 μM).
molecule,measurement,setting,value
C=CCCCCCC [1-octene],IC50,E. coli K12 [1],> 1000 µg/mL
same,toxicity relative to the other olefins tested,E. coli K12 [2],less toxic
B1,"survival and growth in 1-hexene, 1-octene and 1-nonene","E. coli K12 ΔacrAB [3]; pump expression vs control plasmid, saturated atmosphere, FIG. 2B",strong advantage
same,survival in the presence of styrene compared to control plasmid,"E. coli K12 ΔacrAB [4]; pABc vs p0c, styrene, FIG. 2A",enhanced survival
same,tolerance to 1-hexene on over-expression in the wild type strain,E. coli K12 wild type,greater than the wild type
B2,efficiency among the beneficial mutations,E. coli K12 ΔacrAB [3]; 1-hexene saturated atmosphere,more efficient
same,tolerance to 1-hexene relative to wild type AcrB sequence,"E. coli K12 ΔacrAB [3]; single mutation AcrB variants, 1-hexene saturated atmosphere, FIG. 4A",improvement in tolerance
same,growth of the strain in presence of bile salts,"E. coli K12 ΔacrAB [4]; bile salts, FIG. 5C",improved the growth
